Measurements taken from the DeepSol protein solubility set.

experiment: soluble on expression in E. coli; label from the status in PepcDB or PDB records

| Sequence | soluble on expression in E. coli |
| --- | --- |
| MGSDKIHHHHHHMTVCVWCQRPLKTSLTLAQFWRWGPVTPPDICVPCQGRLSPISGQHCPQCGRQQTTCQLCQDCQRWDQPLVNRALYCYDAEMKAYMQQYKFQGDYALQRVLQRALATALTQLTYDILVPIPIAQSTWQSRGFNQVTGWLTGQAYYQVLQVIDQDKATPQSAKNRAQRFLLTPQPFTLAPQAKDLCHGQRVLLLDDVYTTGRTLRHAATQINLTGAKAVTSLTLAR | not soluble |
| MGSDKIHHHHHHMTVQSSDVIAPPAPRTLPDTGLSLVMLRDILLKTMFRMNLELVSQIAPVICLPAPLAQELVDLARSQRLVEATGTLHATSGNEMGYQLTDQGKARALDALSQSEYYGAMPVPLDRYRLQVERQSVRHIKLTRAQLTAAMGHLILPDELLDHLGPAVTSGRSILMYGPPGNGKSSISNGIRDALGDRIYVPRALEYSGQVITVYDPIVHRSAESAVDDPTSLRRTSNRFDNRYVWCERPTVITGGELTLDMLDLTYNPVARTYQAPLQLKATGGIFIVDDLGRQAEPPQKLVNRWIVPLEENRDILALQSGEKFTVPFDTLVIFSTNFHPNEIFDGAALRRIFFKIKVDGPSQENFLKIFAMVAKKRKMPLDETALVHLMKAKFPTIDNRYANYMPVYLIDQMISVCDFEGLPYQMTPALIDRAWSNMFVRDEVIAK | not soluble |
| MGSDKIHHHHHHMVAIDLPYDKRTITAQIDDENYAGKLVSQAATYHNKLSEQETVEKSLDNPIGSDKLEELARGKHNIVIISSDHTRPVPSHIITPILLRRLRSVAPDARIRILVATGFHRPSTHEELVNKYGEDIVNNEEIVMHVSTDDSSMVKIGQLPSGGDCIINKVAAEADLLISEGFIESHFFAGFSGGRKSVLPGIASYKTIMANHSGEFINSPKARTGNLMHNSIHKDMVYAARTAKLAFIINVVLDEDKKIIGSFAGDMEAAHKVGCDFVKELSSVPAIDCDIAISTNGGYPLDQNIYQAVKGMTAAEATNKEGGTIIMVAGARDGHGGEGFYHNLADVDDPKEFLDQAINTPRLKTIPDQWTAQIFARILVHHHVIFVSDLVDPDLITNMHMELAKTLDEAMEKAYAREGQAAKVTVIPDGLGVIVK | not soluble |
| MGSDKIHHHHHHMVDFKEQQQRYWQLLHQPESLFLLHRANDVEHFIALMTDFLAWPELSLEHMLAFIALQQDSFIPDLDRFSQAWFPCRYHSQHKTVSWVPALHKLSKPFLEDDISDARRCLLASFIQPSTLLEPLLSQRESLPIVNPSLMIFHWSRCGSTLVSSSFALLETCRVLSESMLCSDVMHDDHWPLALKPQLVDLCLRLQGRLRLGERKLVIKWNAWDLACWPMLLELYPKSRVLCLIRNPKDIIDSHQRVAGRHMAGGQSLLPTELQTQQMENTDTEPSLDEFRTTVLQYLAQLSLALHQSSRVILLDYHQLTDFKPTTFSTILGWALSEGEIERWQHHWRFDAKQQGQLFTPVVPNEPVPIRECQNPSWQQLLITYNQLLQRLYWDKKA | not soluble |
| MGSDKIHHHHHHMVDTNHKIAFCIDSDGCAMDTMTYKHQLFFGPIAADIFGISEQERTSFLKEWDRVNLYSRTRGVNRFVGLVMGLEFAGVEHIDKLKEWVETTDSLSNNSLELALANDFSRDLEKALEWSNEVNRQIKNYEGDSLAFSGVLESLERLSQFGNVYVVSSANKEAVWQEWEEQGLLKYVDDIYCQDRGKKEDVIATLIASGYCRETILMVGDSLGDLAAAEQNGIAFYPVLVGKEVKSWEILREDIGEAFAKGQFEQQRQKESINTFWANLDN | not soluble |
| MGSDKIHHHHHHMVENYNFSGVPMRLDDLTYMNPWWEGREDYHVRRWKEQRLHWKPGWLEKLSLKPFSLNFVLGPRQVGKTTGIKLLIQELLKDNPPESILYINVKVLPGHRELLNLLREFQELKEKEGVKTGYIFLDEVTSLEGWWRGVKPLIDAGLLKNDVVTVTGSSSLGVRRDIELFPGRRGSGKTIEVMPLSFPEYVEVMGLKKPELYREKVLKLFEDYLTTGGFPTSINGLPMEDLLGAYIGEIVRFGKSLEIAKETLSALIRSAPSATSFRALAGITSGYSYKVVQDYIELFTELYVLGIAYLKQGNQVLYKREKKFFFRDPLLARLFALWSGTELKEDALYEWVVQEHLYRRFGEVYYYRNSYEIDAIAGDLKVEVKAGKTHRRYPKNVRVLEKEDVPFFLLELTHESTSRF | not soluble |
| MGSDKIHHHHHHMVLLDYHMHSLNSTDAHDEISALCAKAIARGLQEIAVTDHFEPSAGHEEYSEYDGRKYFTEIAEARRRFAGKLSIKSGVELGQPHLFPKYSLQLLEEYPYDYVLGSAHRMPNNVDFGEVRYTPENLAAYCASYLTELKALAQWGHYDCLGHLDLVKRYAAKYRLRANLMDYQEQLAEILRIVIDKGKGIEVNTSGLRQSSQECLPDLDIIRLYKELGGEIITVGSDAHWAEDVGKGIQEGLERLKKAGFKYVSVYTNRQPAMIKIGDKSALFTRGGLSA | not soluble |
